Experimental findings from publication PMC10397247 are described below.

In experiment [1] the target is T1, 4H1406-bA.
T1 chain: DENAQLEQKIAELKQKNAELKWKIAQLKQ
The experiment can be described thus: two-hybrid library CCNG1.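 Further: natural log of median RNA to DNA barcode read ratio; higher means stronger binding.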

Experiment [2] addresses T2, 4H2134-bA.
T2 chain: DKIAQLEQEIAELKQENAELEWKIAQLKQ
The experiment can be described thus: two-hybrid library CCNG1.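 Further: natural log of median RNA to DNA barcode read ratio; higher means stronger binding.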

Experiment [3] addresses T3, 4H3592-bA.
T3 chain: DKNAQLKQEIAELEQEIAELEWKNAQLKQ
Briefly: two-hybrid library CCNG1.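 Further: natural log of median RNA to DNA barcode read ratio; higher means stronger binding.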

In experiment [4] the target is T4, 4H3601-bA.
T4 chain: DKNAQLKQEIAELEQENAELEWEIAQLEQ
The experiment can be described thus: two-hybrid library CCNG1.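 Further: natural log of median RNA to DNA barcode read ratio; higher means stronger binding.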

Experiment [5] addresses T5, 4H3907-bA.
T5 chain: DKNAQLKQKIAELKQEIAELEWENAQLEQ
The experiment can be described thus: two-hybrid library CCNG1.

Experiment [6] addresses T6, 4H4038-bA.
T6 chain: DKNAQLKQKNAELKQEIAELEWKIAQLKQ
Briefly: two-hybrid library CCNG1.

In experiment [7] the target is T7, 4H2219-AA.
T7 chain: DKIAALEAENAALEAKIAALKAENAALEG
The experiment can be described thus: two-hybrid library CCmax.

For experiment [8], the target named is T8, 4H249-AA.
T8 chain: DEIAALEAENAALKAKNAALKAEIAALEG
Briefly: two-hybrid library CCmax. To be noted: mean of both orientations.

The target in experiment [9] is T9, 4H2504-AA.
T9 chain: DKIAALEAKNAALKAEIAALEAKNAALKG
The experiment can be described thus: two-hybrid library CCmax. To be noted: mean of both orientations.

Experiment [10] deals with T10, 4H2592-AA.
T10 chain: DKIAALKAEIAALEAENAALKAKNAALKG
Briefly: two-hybrid library CCmax. To be noted: mean of both orientations.

For experiment [11], the target named is T11, 4H2611-AA.
T11 chain: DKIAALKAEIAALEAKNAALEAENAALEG
The experiment can be described thus: two-hybrid library CCmax. To be noted: mean of both orientations.

The target in experiment [12] is T12, 4H2774-AA.
T12 chain: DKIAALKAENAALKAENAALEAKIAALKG
Briefly: two-hybrid library CCmax. To be noted: mean of both orientations.

Experiment [13] addresses T13, 4H3001-AA.
T13 chain: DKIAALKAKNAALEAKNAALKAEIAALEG
The experiment can be described thus: two-hybrid library CCmax. To be noted: mean of both orientations.

The target of experiment [14] is T14, 4H3340-AA.
T14 chain: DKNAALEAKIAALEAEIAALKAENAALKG
The experiment can be described thus: two-hybrid library CCmax. To be noted: mean of both orientations.

Experiment [15] concerns the target T15, 4H3381-AA.
T15 chain: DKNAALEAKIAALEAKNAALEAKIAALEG
Briefly: two-hybrid library CCmax. To be noted: mean of both orientations.

Experiment [16] concerns the target T16, 4H347-AA.
T16 chain: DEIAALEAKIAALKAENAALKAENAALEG
The experiment can be described thus: two-hybrid library CCmax. To be noted: mean of both orientations.

Experiment [17] concerns the target T17, 4H3493-AA.
T17 chain: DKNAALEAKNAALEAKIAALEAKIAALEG
Briefly: two-hybrid library CCmax.

Experiment [18] addresses T18, 4H376-AA.
T18 chain: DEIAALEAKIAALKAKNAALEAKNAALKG
Briefly: two-hybrid library CCmax. To be noted: mean of both orientations.

Experiment [19] has as its target T19, 4H406-AA.
T19 chain: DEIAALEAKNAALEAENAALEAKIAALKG
Briefly: two-hybrid library CCmax. To be noted: mean of both orientations.

Experiment [20] has as its target T20, 4H688-AA.
T20 chain: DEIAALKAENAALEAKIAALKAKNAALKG
Briefly: two-hybrid library CCmax. To be noted: mean of both orientations.

Experiment [21] deals with T21, 4H963-AA.
T21 chain: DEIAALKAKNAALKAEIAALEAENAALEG
The experiment can be described thus: two-hybrid library CCmax. To be noted: mean of both orientations.

Experiment [22] addresses T22, O12-bH.
T22 chain: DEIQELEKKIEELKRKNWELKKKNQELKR
Briefly: two-hybrid library CCNG1.

Experiment [23] has as its target T23, O13-bH.
T23 chain: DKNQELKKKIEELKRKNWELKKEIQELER
Briefly: two-hybrid library CCNG1.

The target of experiment [24] is T24, O14-bH.
T24 chain: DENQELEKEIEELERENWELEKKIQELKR
Briefly: two-hybrid library CCNG1.

Experiment [25] has as its target T25, O15-bH.
T25 chain: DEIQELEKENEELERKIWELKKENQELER
Briefly: two-hybrid library CCNG1.

Experiment [26] concerns the target T26, O16-bH.
T26 chain: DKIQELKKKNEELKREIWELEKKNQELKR
The experiment can be described thus: two-hybrid library CCNG1.

The target in experiment [27] is T27, O2-bH.
T27 chain: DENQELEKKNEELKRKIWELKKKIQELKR
The experiment can be described thus: two-hybrid library CCNG1.

For experiment [28], the target named is T28, O3-bH.
T28 chain: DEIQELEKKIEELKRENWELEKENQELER
Briefly: two-hybrid library CCNG1.

Experiment [29] has as its target T29, O4-bH.
T29 chain: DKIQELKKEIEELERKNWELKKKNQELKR
The experiment can be described thus: two-hybrid library CCNG1.

Experiment [30] concerns the target T30, O5-bH.
T30 chain: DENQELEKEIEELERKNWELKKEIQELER
The experiment can be described thus: two-hybrid library CCNG1.

Experiment [31] has as its target T31, O6-bH.
T31 chain: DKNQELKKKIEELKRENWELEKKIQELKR
The experiment can be described thus: two-hybrid library CCNG1.

The target of experiment [32] is T32, O7-bH.
T32 chain: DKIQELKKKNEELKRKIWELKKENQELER
Briefly: two-hybrid library CCNG1.

In experiment [33] the target is T33, O8-bH.
T33 chain: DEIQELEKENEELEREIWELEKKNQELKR
Briefly: two-hybrid library CCNG1.

The target of experiment [34] is T34, O9-bH.
T34 chain: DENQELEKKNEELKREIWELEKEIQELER
The experiment can be described thus: two-hybrid library CCNG1.

Experiment [35] deals with T35, 4H2442-AA.
T35 chain: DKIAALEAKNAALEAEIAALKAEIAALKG
The experiment can be described thus: two-hybrid library CCmax.

The target in experiment [36] is T36, 4H3112-AA.
T36 chain: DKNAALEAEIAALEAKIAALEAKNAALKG
The experiment can be described thus: two-hybrid library CCmax. To be noted: mean of both orientations.

The target of experiment [37] is T37, 4H3354-AA.
T37 chain: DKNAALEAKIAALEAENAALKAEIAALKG
Briefly: two-hybrid library CCmax. To be noted: mean of both orientations.

Experiment [38] addresses T38, 4H3427-AA.
T38 chain: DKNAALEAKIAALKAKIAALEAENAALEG
Briefly: two-hybrid library CCmax. To be noted: mean of both orientations.

In experiment [39] the target is T39, 4H3782-AA.
T39 chain: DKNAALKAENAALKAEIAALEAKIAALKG
The experiment can be described thus: two-hybrid library CCmax. To be noted: mean of both orientations.

Experiment [40] deals with T40, 4H3855-AA.
T40 chain: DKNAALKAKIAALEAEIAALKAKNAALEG
Briefly: two-hybrid library CCmax. To be noted: mean of both orientations.

In experiment [41] the target is T41, 4H4001-AA.
T41 chain: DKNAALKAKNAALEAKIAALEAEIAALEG
Briefly: two-hybrid library CCmax. To be noted: mean of both orientations.

Experiment [42] concerns the target T42, 4H568-AA.
T42 chain: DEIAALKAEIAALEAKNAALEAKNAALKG
Briefly: two-hybrid library CCmax. To be noted: mean of both orientations.

The target of experiment [43] is T43, 4H687-AA.
T43 chain: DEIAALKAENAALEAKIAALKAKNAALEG
The experiment can be described thus: two-hybrid library CCmax. To be noted: mean of both orientations.

For experiment [44], the target named is T44, 4H717-AA.
T44 chain: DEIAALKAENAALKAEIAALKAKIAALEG
The experiment can be described thus: two-hybrid library CCmax. To be noted: mean of both orientations.

The target in experiment [45] is T45, 4H797-AA.
T45 chain: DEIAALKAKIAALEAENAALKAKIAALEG
Briefly: two-hybrid library CCmax. To be noted: mean of both orientations.

The target in experiment [46] is T46, 4H883-AA.
T46 chain: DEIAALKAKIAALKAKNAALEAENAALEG
Briefly: two-hybrid library CCmax. To be noted: mean of both orientations.

The target of experiment [47] is T47, 4H918-AA.
T47 chain: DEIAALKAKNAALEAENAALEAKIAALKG
Briefly: two-hybrid library CCmax. To be noted: mean of both orientations.

Experiment [48] concerns the target T48, 4H953-AA.
T48 chain: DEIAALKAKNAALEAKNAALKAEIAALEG
The experiment can be described thus: two-hybrid library CCmax. To be noted: mean of both orientations.

The target of experiment [49] is T49, 4H967-AA.
T49 chain: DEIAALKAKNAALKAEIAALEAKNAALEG
The experiment can be described thus: two-hybrid library CCmax. To be noted: mean of both orientations.

Experiment [50] deals with T50, O11-bH.
T50 chain: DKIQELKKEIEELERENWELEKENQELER
The experiment can be described thus: two-hybrid library CCNG1.

Experiment [51] deals with T51, P6SH.
T51 chain: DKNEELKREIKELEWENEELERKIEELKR
The experiment can be described thus: two-hybrid library CCNG1.

In experiment [52] the target is T52, P7SH.
T52 chain: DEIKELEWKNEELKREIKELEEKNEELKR
Briefly: two-hybrid library CCNG1.

The target in experiment [53] is T53, P8SH.
T53 chain: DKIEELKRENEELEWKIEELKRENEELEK
The experiment can be described thus: two-hybrid library CCNG1.

As to DENAQLEQKIAELKQKNAELKWKIAQLKQ [4H1406-bA], the interaction score in experiment [1] is -0.836; in [2] it was 1.62; in experiment [3], 0.233; in experiment [4], 1.83; in experiment [5] it was 0.571; in experiment [6] it was -0.125.
Consider DKIAALEAENAALEAKIAALKAENAALEG [4H2219-AA], for which the interaction score in experiment [7] is -1.21; in [8] it was -1.35; in experiment [9], 2.21; in [10] it was -0.491; in [11], -1.33; in [12], -0.727. Also, the interaction score is -0.483 in [13]; -1.39 in [14]; -1.13 in [15]; -1.36 in experiment [16]; -1.56 in experiment [17]; -1.64 in experiment [18]. Besides, the figures for the interaction score in [19], in [20] and in experiment [21] were -1.81, -0.493 and 0.45, respectively.
With DEIQELEKKIEELKRKNWELKKKNQELKR [O12-bH], the interaction score in experiment [22] is 0.775; in experiment [23] it was 0.332; in experiment [24], -1.38; in experiment [25] it was 0.483; in experiment [26], -0.436; in experiment [27], -1.26. For the same molecule, the interaction score in experiment [28] is 1.56; in experiment [29], 1.12; in experiment [30] it was -1.26; in experiment [31] it was 0.619; in experiment [32], -0.37; in experiment [33], 1.12. In experiment [34], this molecule registered an interaction score of 0.102.
For DKIAALEAKNAALEAEIAALKAEIAALKG [4H2442-AA], the interaction score in experiment [35] is 1.97; in [36] it was -1.4; in experiment [37], -1.37; in [38], -1.52; in experiment [39], -1.14; in [40] it was -1.56. Further, the interaction score in experiment [41] is -2.06; in experiment [42] it was -1.38; in experiment [43], -1.85; in [44] it was -1.4; in experiment [45] it was -1.52; in experiment [46], -1.82. Further, the interaction score in [47] is -1.29; in experiment [48], -1.67; in experiment [49], -2.2.
As to DKIQELKKEIEELERENWELEKENQELER [O11-bH], the interaction score in [50] is -0.129; in [22], 1.01; in experiment [23] it was -0.515; in experiment [24] it was -0.342; in experiment [25], -0.515; in [26], -0.352. In addition, the interaction score was -1.24 in experiment [27]; 0.233 in experiment [28]; 1.29 in [29]; -3.76 in [30]; -0.451 in experiment [31]; 0.102 in experiment [32]. The interaction score is -0.273 in experiment [33] and -1.15 in experiment [34].
Turning to DKNEELKREIKELEWENEELERKIEELKR [P6SH], the interaction score in experiment [51] amounted to 0.574; in experiment [52], 0.762; in experiment [53] it was 0.565.
